According to US20190062422A1 (MorphoSys, published 2019):

B8: mouse IL17C (ligand, UniProt Q8K4C5 17-194, looked up)
chain: DPPSWGKPRSHRTLRCYSAEELSHGQAPPHLLTRSARWEQALPVALVASLEATGHRRQHEGPLAGTQCPVLRPEEVLEADTHERSISPWRYRIDTDENRYPQKLAVAECLCRGCINAKTGRETAALNSVQLLQSLLVLRRQPCSRDGTADPTPGSFAFHTEFIRVPVGCTCVLPRSTQ
modifications: biotinylated in the receptor interaction, inhibition and serum stability assays (sites not given)
notes: Bought recombinant protein; About 22 kDa reduced and about 40 kDa non-reduced on SDS-PAGE; Used plain (coated, ELISA) or biotinylated; also called biotinylated mouse IL17C; biotin-IL17C

Experiments:
[1] = molecular target: B8; test: solution equilibrium titration (SET), ECL based, monovalent Fab fragment (Fab_FH format)
Method: Monovalent affinities of anti-IL17C antibodies were determined by solution equilibrium titration (SET) using Fab fragments. Affinity determination in solution was basically performed as described in the literature (Friquet et al., (1985) J. Immunol. Meth. 77: 305-19). In order to improve the sensitivity and accuracy of the SET method, it was transferred from classical ELISA to ECL based technology (Haenel et al. (2005) Anal Biochem. 339.1: 182-84). Binders were expressed and purified in Fab_FH format.

[2] = molecular target: B8; test: ELISA, purified chimeric human/mouse IgG2a titrated on mouse IL17C, n=1-2
Method: All purified chimeric human-mouse chimeric IgG2a antibodies were titrated on mouse IL17C for EC₅₀ determination in ELISA starting with a concentration of 100 nM. EC₅₀ values on mouse IL17C were determined in 1 to 3 independent experiments.

[3] = molecular target: T1, human IL17C (human, UniProt Q9P0M4 19-197); test: ELISA, purified chimeric human/mouse IgG2a on huIL-17C
T1 sequence: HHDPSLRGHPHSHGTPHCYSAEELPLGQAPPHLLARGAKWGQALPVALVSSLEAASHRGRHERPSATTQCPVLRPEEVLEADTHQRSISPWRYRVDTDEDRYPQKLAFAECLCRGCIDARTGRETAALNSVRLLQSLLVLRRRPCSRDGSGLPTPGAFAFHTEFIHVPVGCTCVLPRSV

[4] = molecular target: T2, mouse IL-17B (mouse, UniProt Q9QXT6 23-180, limits assumed); test: ELISA, purified chimeric human/mouse IgG2a on msIL-17B
T2 sequence (looked up): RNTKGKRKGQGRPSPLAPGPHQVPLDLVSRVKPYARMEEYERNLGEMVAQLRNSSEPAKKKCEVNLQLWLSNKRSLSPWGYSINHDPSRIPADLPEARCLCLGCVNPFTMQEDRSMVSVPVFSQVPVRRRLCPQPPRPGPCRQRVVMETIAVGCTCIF

[5] = molecular target: B8; test: mIL17C - mIL-17RE inhibition assay (MSD): human/mouse IgG2a pre-incubated with biotinylated mouse IL17C, binding to coated mouse IL17RE/Fc detected by Streptavidin-ECL
Method: To determine inhibitory activity of purified anti-IL17C human-mouse chimeric IgG2a in a mIL-17 RE interaction assay, Maxisorp™ 384 well MSD plates were coated with 30 μL mouse IL17RE/Fc at 75 ng/mL in PBS at 4° C. overnight. The next day 25 μL of a serial antibody dilution (concentrations from 0.001 to 100 nM) were pre-incubated for 30 min at RT with an equal volume of biotinylated mouse IL17C at 0.125 nM. After blocking of plates for 1 h with 2.5% BSA in PBST, preformed antibody-ligand complexes were added for 1 h to coated IL17RE/Fc and receptor binding was detected via Streptavidin-ECL using MSD Sector Imager.
To characterize the antibodies in human/mouse IgG2a format in more detail, for each candidate IC₅₀ values were determined in the IL-17 receptor E inhibition assay as described herein above in up to 4 independent experiments.

[6] = molecular target: B8; test: ELISA on biotin-IL17C captured on avidin: chimeric IgG2a incubated 24 h at 37°C in mouse serum against freshly diluted IgG2a
Method: 96 well Maxisorp plates (Nunc; #442404) were coated with avidin at a concentration of 1 μg/ml in PBS overnight at 4° C. The next day, anti-IL17 chimeric IgG2a were incubated in mouse serum for 24 h at 37° C. at a final concentration 100 μg/mL. After the incubation step the antibodies were diluted 1:100 in LowCross buffer (Candor Bioscience; #100500). As a reference the same set of antibodies were freshly diluted in LowCross buffer+1% mouse serum and incubated for 30 min at RT. Avidin coated plates were incubated with blocking buffer (Superblock blocking buffer from Pierce, #37515) and subsequently 100 μL of 0.1 μg/mL biotin-IL17C in LowCross buffer was added to blocked wells. After a washing step a serial dilution of the serum-incubated and freshly diluted IgGs was added. Binding of IgGs was detected by anti-mouse-IgG2a POD conjugated detection antibody (diluted 1:5000 in LowCross buffer) using TMB One Component HRP as substrate. The reaction was stopped by adding 1M HCl and absorbance was measured at 450 nm.

[7] = molecular target: T2, mouse IL-17B; test: ELISA, purified chimeric IgG2a
[8] = molecular target: T1, human IL17C; test: ELISA, purified chimeric IgG2a
[9] = molecular target: T3, mouse IL-17RB (mouse, UniProt Q9JIP3 18-286); test: MSD receptor interaction assay, coated receptor, biotinylated mouse IL17C, streptavidin detection
T3 construct: extracellular domain; also called IL17 receptor B
T3 sequence (looked up): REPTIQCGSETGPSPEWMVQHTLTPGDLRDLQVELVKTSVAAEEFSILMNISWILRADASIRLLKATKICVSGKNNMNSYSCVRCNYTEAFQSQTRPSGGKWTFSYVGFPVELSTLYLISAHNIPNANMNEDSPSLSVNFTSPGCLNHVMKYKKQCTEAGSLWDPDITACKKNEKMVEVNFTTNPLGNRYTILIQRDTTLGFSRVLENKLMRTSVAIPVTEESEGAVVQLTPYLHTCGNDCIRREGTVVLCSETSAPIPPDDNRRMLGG
Method: To test binding of mouse IL17 to its putative receptor, IL17 receptor E an interaction assay was set up. The assay setup is depicted in FIG. 1A. In brief, IL17 receptors B and E were coated on a Multi-array® 384-well plate Standard plate (Meso Scale Discovery; #L21XA-4) and biotinylated mouse IL17C was added. Binding of mouse IL17C to its receptor was measured via binding of Streptavidin in a MSD Sector Imager 6000 (Meso Scale Discovery, Gaithersburg, Md., USA).

B1: MOR12743 (antibody, V domains shown)
VH: QVQLVQSGAEVKKPGASVKVSCKASGYTFTSNFIHWVRQAPGQGLEWMGWISPYNGDTNYAQKFQGRVTMTRDTSISTAYMELSRLRSEDTAVYYCARESVYYGSDYGYNGMDIWGQGTLVTVSS
VL: DIELTQPPSVSVSPGQTASITCSGDNLGEEYVSWYQQKPGQAPVLVIYDDTKRPSGIPERFSGSNSGNTATLTISGTQAEDEADYYCASWDLWSVEVFGGGTKLTVLG
notes: Tested as human-mouse chimeric IgG2a (human variable, mouse constant regions); Potential N-linked glycosylation sites were removed by site-directed mutagenesis; also called MOR12743_h/m; MOR1243
Kd [1]: 0.048 nM
EC50 [2]: 0.3 nM
binding result [3]: no binding
binding result [4]: no binding
IC50 [5]: 0.016 nM
Coefficient of variation (Mouse Serum Stability Assay 24h/37°C) [6]: 2.88%

B2: MOR12753 (antibody, V domains shown)
VH: QVQLQQSGPGLVKPSQTLSLTCAISGDSVSSSSAAWNWIRQSPSRGLEWLGRIEYRSKWYNDYAVSVKSRITINPDTSKNQFSLQLNSVTPEDTAVYYCAREMYYYSGYGVFDVWGQGTLVTVSS
VL: DIELTQPPSVSVSPGQTASITCSGDALGGEYVHWYQQKPGQAPVLVIYDDDKRPSGIPERFSGSNSGNTATLTISGTQAEDEADYYCSSFDTWTSYVFGGGTKLTVLG
notes: Tested as human-mouse chimeric IgG2a (human variable, mouse constant regions); Potential N-linked glycosylation sites were removed by site-directed mutagenesis
Kd [1]: 0.062 nM
binding result [7]: no binding
binding result [8]: no binding

B3: MOR12745 (antibody, V domains shown)
VH: QVQLVQSGAEVKKPGASVKVSCKASGYTFTSNFIHWVRQAPGQGLEWMGWISPYNGDTNYAQKFQGRVTMTRDTSISTAYMELSRLRSEDTAVYYCARESVYYGSDYGYNGMDIWGQGTLVTVSS
VL: DIELTQPPSVSVSPGQTASITCSGDNLGEEYVSWYQQKPGQAPVLVIYDDTKRPSGIPERFSGSNSGNTATLTISGTQAEDEADYYCSAWATWSVAVFGGGTKLTVLG
notes: as for B2
Kd [1]: 0.075 nM
EC50 [2]: 0.4 nM
binding result [3]: no binding
binding result [4]: no binding
IC50 [5]: 0.013 nM
Coefficient of variation (Mouse Serum Stability Assay 24h/37°C) [6]: 15.9%

B4: MOR12744 (antibody, V domains shown)
VH: QVQLVQSGAEVKKPGASVKVSCKASGYTFTSNFIHWVRQAPGQGLEWMGWISPYNGDTNYAQKFQGRVTMTRDTSISTAYMELSRLRSEDTAVYYCARESVYYGSDYGYNGMDIWGQGTLVTVSS
VL: DIELTQPPSVSVSPGQTASITCSGDNLGEEYVSWYQQKPGQAPVLVIYDDTKRPSGIPERFSGSNSGNTATLTISGTQAEDEADYYCASWAFYSSQVFGGGTKLTVLG
notes: as for B2
Kd [1]: 0.053 nM
EC50 [2]: 0.28 nM
binding result [3]: no binding
binding result [4]: no binding
IC50 [5]: 0.012 nM
Coefficient of variation (Mouse Serum Stability Assay 24h/37°C) [6]: 11.8%

B5: MOR12746 (antibody, V domains shown)
VH: QVQLVQSGAEVKKPGASVKVSCKASGYTFTSNFIHWVRQAPGQGLEWMGWISPYNGDTNYAQKFQGRVTMTRDTSISTAYMELSRLRSEDTAVYYCARESVYYGSDYGYNGMDIWGQGTLVTVSS
VL: DIELTQPPSVSVSPGQTASITCSGDNLGEEYVSWYQQKPGQAPVLVIYDDTKRPSGIPERFSGSNSGNTATLTISGTQAEDEADYYCSSWTHFSNIVFGGGTKLTVLG
notes: as for B2
Kd [1]: 0.056 nM
EC50 [2]: 0.38 nM
binding result [3]: no binding
binding result [4]: no binding
IC50 [5]: 0.023 nM
Coefficient of variation (Mouse Serum Stability Assay 24h/37°C) [6]: 7.36%

B6: MOR12754 (antibody, V domains shown)
VH: EVQLLESGGGLVQPGGSLRLSCAASGFTFSDYAMTWVRQAPGKGLEWVSVISYDGSLTYYADSVKGRFTISRDNSKNTLYLQMNSLRAEDTAVYYCARDPGVWWLSYLDYWGQGTLVTVSS
VL: DIQMTQSPSSLSASVGDRVTITCRASQDIISYLAWYQQKPGKAPKLLIYGASNLQGGVPSRFSGSGSGTDFTLTISSLQPEDFAVYYCQQYMIAPPNTFGQGTKVEIKR
notes: as for B2
Kd [1]: 4.1 nM
EC50 [2]: 0.4 nM
binding result [3]: no binding
binding result [4]: no binding
IC50 [5]: 8.44 nM
Coefficient of variation (Mouse Serum Stability Assay 24h/37°C) [6]: 17%

B7: MOR12742 (antibody, V domains shown)
VH: QVQLVQSGAEVKKPGSSVKVSCKASGGTFSSYGISWVRQAPGQGLEWMGRIIPIFGTAYYAQKFQGRVTITADESTSTAYMELSSLRSEDTAVYYCARDMRYHDYWPYYYGSDQFDVWGQGTLVTVSS
VL: DIVLTQPPSVSGAPGQRVTISCSGSSSNIGSDIVSWYQQLPGTAPKLLIYYNNLRPSGVPDRFSGSKSGTSASLAITGLQAEDEADYYCQSWDWASLAMVFGGGTKLTVLG
notes: as for B2
binding result [7]: no binding
binding result [8]: no binding

B8
binding result [9]: no binding
